Substrate in this data set: O=P(O)(O)OC[C@H]1OC(O)(CO)[C@@H](O)[C@@H]1O
Kind of data set: Kinetics, E4PDH based colorimetric assay for FPK activity (F6P). The format is biochemical, Bifidobacterium adolescentis. Conditions: other: F6P. The text has this:
Mutagenesis techniques were used to generate engineered phosphoketolases based on one of two template phosphoketolases (the fructose-6-phosphate phosphoketolase from Bifidobacterium adolescentis (strain ATCC 15703 DSM 20083 NCTC 11814 E194a) (“H2”; UniProtKB Accession No. A1A185_BIFAA; SEQ ID NOs: 1 and 3) orthe xylulose-5-phosphate/fructose-6-phosphate phosphoketolase from Collinsella aerofaciens (“D3”; UniProt KB Accession No. A0A174LGR4_9ACTN; SEQ ID NOs: 2 and 4)). Engineered phosphoketolase were generated using rational protein engineering. Structural homology models were constructed for H2 and D3. The substrate docking with Xu5P and F6P were also performed. In total, 2000 variants were designed. There are 1031 constructs designed based on H2, and 969 based on D3. 1999 constructs were received from DNA synthesis. The variants were then tested for XPK and/or FPK activity in in vitro primary and secondary screens as described below.
Further biochemical characterization of selected variants was conducted and the FPK activity of these variants were assessed. 12 hits were selected from the secondary screening results of the phosphoketolase library screen for in vitro biochemical characterization. All 12 of the hits selected are variants based on SEQ ID NO: 1. The kinetics parameters measured during biochemical characterization are summarized below in Table 5. The FPK kinetics assay was based on the E4PDH based Colorimetric Assay described herein for the 12 hits and the two controls (SEQ ID NO: 1 and SEQ ID NO: 2).
The product of FPK is coupled to NADH production via a one-step enzymatic reaction of its product with E4PDH. NADH production overtime was measured by absorbance at 340 nm. The reactions are listed below.
5 μL of half diluted cell lysate was added into 45 μL of reaction buffer. The reaction buffer contained an approximate amount of E4PDH enzyme, 1 mM NADH and 5 mM F6P as substrate for primary screening. 2 mM F6P was used for secondary screening. The reaction was recorded for a 10-min kinetics reading at 340 nm at room temperature.

In patent publication US20240218346A1, “PHOSPHOKETOLASE VARIANTS AND METHODS OF USE” (Genomatica, Inc., priority 2021, published 2024) one finds Km, kcat and kcat/Km data, which are given here for six proteins.

As usually defined, the Km is the substrate concentration at which the rate is half of its maximum. As a reminder, the kcat is the number of substrate molecules converted per active site and unit of time at saturation. In general, kcat/Km refers to the second-order rate constant that governs catalysis at low substrate concentration.

B1: Bifidobacterium adolescentis fructose-6-phosphate phosphoketolase (H2, SEQ ID NO: 1) variant H239R (Bifidobacterium adolescentis ATCC 15703; H238R) (protein)
chain: MMTSPVIGTPWKKLNAPVSEEAIEGVDKYWRAANYLSIGQIYLRSNPLMKEPFTREDVKHRLVGHWGTTPGLNFLIGHINRLIADHQQNTVIIMGPGHGGPAGTAQSYLDGTYTEYFPNITKDEAGLQKFFRQFSYPGGIPSHYAPETPGSIHEGGELGYALSHAYGAVMNNPSLFVPAIVGDGEAETGPLATGWQSNKLINPRTDGIVLPILHLNGYKIANPTILSRISDEELHEFFRGMGYEPYEFVAGFDNEDHLSIHRRFAELFETVFDEICDIKAAAQTDDMTRPFYPMIIFRTPKGWTCPKFIDGKKTEGSWRSHQVPLASARDTEAHFEVLKNWLESYKPEELFDENGAVKPEVTAFMPTGELRIGENPNANGGRIREELKLPKLEDYEVKEVAEYGHGWGQLEATRRLGVYTRDIIKNNPDSFRIFGPDETASNRLQAAYDVTNKQWDAGYLSAQVDEHMAVTGQVTEQLSEHQMEGFLEGYLLTGRHGIWSSYESFVHVIDSMLNQHAKWLEATVREIPWRKPISSMNLLVSSHVWRQDHNGFSHQDPGVTSVLLNKCFNNDHVIGIYFPVDSNMLLAVAEKCYKSTNKINAIIAGKQPAATWLTLDEARAELEKGAAEWKWASNVKSNDEAQIVLAATGDVPTQEIMAAADKLDAMGIKFKVVNVVDLVKLQSAKENNEALSDEEFAELFTEDKPVLFAYHSYARDVRGLIYDRPNHDNFNVHGYEEQGSTTTPYDMVRVNNIDRYELQAEALRMIDADKYADKINELEAFRQEAFQFAVDNGYDHPDYTDWVYSGVNTNKQGAISATAATAGDNE
Turning to B1, the Km is 2432 µM, the kcat is 57.9 s⁻¹ and the kcat/Km came to 23800 M⁻¹ s⁻¹.

B2: Bifidobacterium adolescentis fructose-6-phosphate phosphoketolase (H2, SEQ ID NO: 1) variant C567S (Bifidobacterium adolescentis ATCC 15703; C566S) (protein)
chain: MMTSPVIGTPWKKLNAPVSEEAIEGVDKYWRAANYLSIGQIYLRSNPLMKEPFTREDVKHRLVGHWGTTPGLNFLIGHINRLIADHQQNTVIIMGPGHGGPAGTAQSYLDGTYTEYFPNITKDEAGLQKFFRQFSYPGGIPSHYAPETPGSIHEGGELGYALSHAYGAVMNNPSLFVPAIVGDGEAETGPLATGWQSNKLINPRTDGIVLPILHLNGYKIANPTILSRISDEELHEFFHGMGYEPYEFVAGFDNEDHLSIHRRFAELFETVFDEICDIKAAAQTDDMTRPFYPMIIFRTPKGWTCPKFIDGKKTEGSWRSHQVPLASARDTEAHFEVLKNWLESYKPEELFDENGAVKPEVTAFMPTGELRIGENPNANGGRIREELKLPKLEDYEVKEVAEYGHGWGQLEATRRLGVYTRDIIKNNPDSFRIFGPDETASNRLQAAYDVTNKQWDAGYLSAQVDEHMAVTGQVTEQLSEHQMEGFLEGYLLTGRHGIWSSYESFVHVIDSMLNQHAKWLEATVREIPWRKPISSMNLLVSSHVWRQDHNGFSHQDPGVTSVLLNKSFNNDHVIGIYFPVDSNMLLAVAEKCYKSTNKINAIIAGKQPAATWLTLDEARAELEKGAAEWKWASNVKSNDEAQIVLAATGDVPTQEIMAAADKLDAMGIKFKVVNVVDLVKLQSAKENNEALSDEEFAELFTEDKPVLFAYHSYARDVRGLIYDRPNHDNFNVHGYEEQGSTTTPYDMVRVNNIDRYELQAEALRMIDADKYADKINELEAFRQEAFQFAVDNGYDHPDYTDWVYSGVNTNKQGAISATAATAGDNE
As to B2, the Michaelis constant (Km) worked out at 3046 µM, the kcat amounted to 26.4 s⁻¹ and the kcat/Km came out at 8660 M⁻¹ s⁻¹.

B3: Bifidobacterium adolescentis fructose-6-phosphate phosphoketolase (H2, SEQ ID NO: 1) variant H257P (Bifidobacterium adolescentis ATCC 15703; H256P) (protein)
chain: MMTSPVIGTPWKKLNAPVSEEAIEGVDKYWRAANYLSIGQIYLRSNPLMKEPFTREDVKHRLVGHWGTTPGLNFLIGHINRLIADHQQNTVIIMGPGHGGPAGTAQSYLDGTYTEYFPNITKDEAGLQKFFRQFSYPGGIPSHYAPETPGSIHEGGELGYALSHAYGAVMNNPSLFVPAIVGDGEAETGPLATGWQSNKLINPRTDGIVLPILHLNGYKIANPTILSRISDEELHEFFHGMGYEPYEFVAGFDNEDPLSIHRRFAELFETVFDEICDIKAAAQTDDMTRPFYPMIIFRTPKGWTCPKFIDGKKTEGSWRSHQVPLASARDTEAHFEVLKNWLESYKPEELFDENGAVKPEVTAFMPTGELRIGENPNANGGRIREELKLPKLEDYEVKEVAEYGHGWGQLEATRRLGVYTRDIIKNNPDSFRIFGPDETASNRLQAAYDVTNKQWDAGYLSAQVDEHMAVTGQVTEQLSEHQMEGFLEGYLLTGRHGIWSSYESFVHVIDSMLNQHAKWLEATVREIPWRKPISSMNLLVSSHVWRQDHNGFSHQDPGVTSVLLNKCFNNDHVIGIYFPVDSNMLLAVAEKCYKSTNKINAIIAGKQPAATWLTLDEARAELEKGAAEWKWASNVKSNDEAQIVLAATGDVPTQEIMAAADKLDAMGIKFKVVNVVDLVKLQSAKENNEALSDEEFAELFTEDKPVLFAYHSYARDVRGLIYDRPNHDNFNVHGYEEQGSTTTPYDMVRVNNIDRYELQAEALRMIDADKYADKINELEAFRQEAFQFAVDNGYDHPDYTDWVYSGVNTNKQGAISATAATAGDNE
B3: the Km was found to be 2422 µM, the kcat was 25 s⁻¹ and the kcat/Km worked out at 10300 M⁻¹ s⁻¹.

B4: Bifidobacterium adolescentis fructose-6-phosphate phosphoketolase (H2, SEQ ID NO: 1) variant M483C (Bifidobacterium adolescentis ATCC 15703; M482C) (protein)
chain: MMTSPVIGTPWKKLNAPVSEEAIEGVDKYWRAANYLSIGQIYLRSNPLMKEPFTREDVKHRLVGHWGTTPGLNFLIGHINRLIADHQQNTVIIMGPGHGGPAGTAQSYLDGTYTEYFPNITKDEAGLQKFFRQFSYPGGIPSHYAPETPGSIHEGGELGYALSHAYGAVMNNPSLFVPAIVGDGEAETGPLATGWQSNKLINPRTDGIVLPILHLNGYKIANPTILSRISDEELHEFFHGMGYEPYEFVAGFDNEDHLSIHRRFAELFETVFDEICDIKAAAQTDDMTRPFYPMIIFRTPKGWTCPKFIDGKKTEGSWRSHQVPLASARDTEAHFEVLKNWLESYKPEELFDENGAVKPEVTAFMPTGELRIGENPNANGGRIREELKLPKLEDYEVKEVAEYGHGWGQLEATRRLGVYTRDIIKNNPDSFRIFGPDETASNRLQAAYDVTNKQWDAGYLSAQVDEHMAVTGQVTEQLSEHQCEGFLEGYLLTGRHGIWSSYESFVHVIDSMLNQHAKWLEATVREIPWRKPISSMNLLVSSHVWRQDHNGFSHQDPGVTSVLLNKCFNNDHVIGIYFPVDSNMLLAVAEKCYKSTNKINAIIAGKQPAATWLTLDEARAELEKGAAEWKWASNVKSNDEAQIVLAATGDVPTQEIMAAADKLDAMGIKFKVVNVVDLVKLQSAKENNEALSDEEFAELFTEDKPVLFAYHSYARDVRGLIYDRPNHDNFNVHGYEEQGSTTTPYDMVRVNNIDRYELQAEALRMIDADKYADKINELEAFRQEAFQFAVDNGYDHPDYTDWVYSGVNTNKQGAISATAATAGDNE
B4: the Km was 2299 µM, the turnover number (kcat) is 34 s⁻¹ and the kcat/Km was 14800 M⁻¹ s⁻¹.

B5: Bifidobacterium adolescentis fructose-6-phosphate phosphoketolase (H2, SEQ ID NO: 1) variant Y804W (Bifidobacterium adolescentis ATCC 15703; Y803W) (protein)
chain: MMTSPVIGTPWKKLNAPVSEEAIEGVDKYWRAANYLSIGQIYLRSNPLMKEPFTREDVKHRLVGHWGTTPGLNFLIGHINRLIADHQQNTVIIMGPGHGGPAGTAQSYLDGTYTEYFPNITKDEAGLQKFFRQFSYPGGIPSHYAPETPGSIHEGGELGYALSHAYGAVMNNPSLFVPAIVGDGEAETGPLATGWQSNKLINPRTDGIVLPILHLNGYKIANPTILSRISDEELHEFFHGMGYEPYEFVAGFDNEDHLSIHRRFAELFETVFDEICDIKAAAQTDDMTRPFYPMIIFRTPKGWTCPKFIDGKKTEGSWRSHQVPLASARDTEAHFEVLKNWLESYKPEELFDENGAVKPEVTAFMPTGELRIGENPNANGGRIREELKLPKLEDYEVKEVAEYGHGWGQLEATRRLGVYTRDIIKNNPDSFRIFGPDETASNRLQAAYDVTNKQWDAGYLSAQVDEHMAVTGQVTEQLSEHQMEGFLEGYLLTGRHGIWSSYESFVHVIDSMLNQHAKWLEATVREIPWRKPISSMNLLVSSHVWRQDHNGFSHQDPGVTSVLLNKCFNNDHVIGIYFPVDSNMLLAVAEKCYKSTNKINAIIAGKQPAATWLTLDEARAELEKGAAEWKWASNVKSNDEAQIVLAATGDVPTQEIMAAADKLDAMGIKFKVVNVVDLVKLQSAKENNEALSDEEFAELFTEDKPVLFAYHSYARDVRGLIYDRPNHDNFNVHGYEEQGSTTTPYDMVRVNNIDRYELQAEALRMIDADKYADKINELEAFRQEAFQFAVDNGYDHPDYTDWVWSGVNTNKQGAISATAATAGDNE
As for B5, the Km was 2860 µM, the kcat worked out at 30.8 s⁻¹ and the kcat/Km amounted to 10800 M⁻¹ s⁻¹.

B6: Bifidobacterium adolescentis fructose-6-phosphate phosphoketolase (H2, SEQ ID NO: 1) variant Q759L (Bifidobacterium adolescentis ATCC 15703; Q758L) (protein)
chain: MMTSPVIGTPWKKLNAPVSEEAIEGVDKYWRAANYLSIGQIYLRSNPLMKEPFTREDVKHRLVGHWGTTPGLNFLIGHINRLIADHQQNTVIIMGPGHGGPAGTAQSYLDGTYTEYFPNITKDEAGLQKFFRQFSYPGGIPSHYAPETPGSIHEGGELGYALSHAYGAVMNNPSLFVPAIVGDGEAETGPLATGWQSNKLINPRTDGIVLPILHLNGYKIANPTILSRISDEELHEFFHGMGYEPYEFVAGFDNEDHLSIHRRFAELFETVFDEICDIKAAAQTDDMTRPFYPMIIFRTPKGWTCPKFIDGKKTEGSWRSHQVPLASARDTEAHFEVLKNWLESYKPEELFDENGAVKPEVTAFMPTGELRIGENPNANGGRIREELKLPKLEDYEVKEVAEYGHGWGQLEATRRLGVYTRDIIKNNPDSFRIFGPDETASNRLQAAYDVTNKQWDAGYLSAQVDEHMAVTGQVTEQLSEHQMEGFLEGYLLTGRHGIWSSYESFVHVIDSMLNQHAKWLEATVREIPWRKPISSMNLLVSSHVWRQDHNGFSHQDPGVTSVLLNKCFNNDHVIGIYFPVDSNMLLAVAEKCYKSTNKINAIIAGKQPAATWLTLDEARAELEKGAAEWKWASNVKSNDEAQIVLAATGDVPTQEIMAAADKLDAMGIKFKVVNVVDLVKLQSAKENNEALSDEEFAELFTEDKPVLFAYHSYARDVRGLIYDRPNHDNFNVHGYEEQGSTTTPYDMVRVNNIDRYELLAEALRMIDADKYADKINELEAFRQEAFQFAVDNGYDHPDYTDWVYSGVNTNKQGAISATAATAGDNE
For B6, the Km stood at 3596 µM, the kcat came to 35.6 s⁻¹ and the kcat/Km came out at 9890 M⁻¹ s⁻¹.
